Substitutions are numbered along the chain they refer to. Values belong to the molecule of their own block, whether it stands above or below them.
How the values were obtained:
NgR ligands = test: Binding of alanine substituted NgR mutants to NgR ligands, summary categories; settings: AP-Nogo66, AP-B4C, AP-B4C66, AP-Lingo-1, AP-OMgp and AP-MAG; compared to wild type NgR
Excerpt: (§1) To better define how multiple ligands bind to the NgR protein, we examined a series of Ala-substituted NgR for ligand binding activity. NgR mutagenesis was done using the Quick Change Multisite Directed Mutagenesis Kit (Stratagene catalog #200514). Human NgR1 was used as a template. Ala substitutions were generated for each of the charged residues predicted to be solvent accessible at the surface of the ligand binding domain of NgR (Barton, W. A., et al., Embo J. 22:3291-3302 (2003); He, X. L., et al., Neuron 38:177-185 (2003)). We generated mutants in which 1-8 surface residues localized within 5 A of one another were Ala-substituted. Because of the coiling nature of the LRR structure, as residues juxtaposed on the protein surface are commonly separated by approximately 25 residues in the primary structure. In addition to mutations in specific charged surface patches, other mutations were targeted to glycosylation sites and to regions predicted to be involved in ligand binding based on the NgR structure (Barton, W. A., et al., Embo J. 22:3291-3302 (2003); He, X. L., et al., Neuron 38:177-185 (2003)). In addition, a variant corresponding to a human polymorphism was examined (D259N). None of the mutations altered the Leu residues that define the LRR structure itself or the Cys residues critical in the amino and carboxyl terminal capping domains. The vast majority of such Ala surface substitution mutants were expressed as immunoreactive polypeptides with a molecular weight and an expression level indistinguishable from wild type NgR (FIG. 4C and data not shown).
(§2) This collection of 74 individual NgR mutants was interrogated for AP-Nogo-66, AP-Amino-Nogo-B4C, AP-MAG, AP-OMgp, and AP-Lingo-1 binding. AP-Nogo66, AP-MAG, AP-OMGP and AP-Lingo-1 constructs are described elsewhere (Fournier, A. E., et al., Nature 409:341-346 (2001); Liu, B. P., et al., Science 297:1190-1193 (2002); Mi, S., et al., Nat. Neurosci. 7:221-228 (2004); Wang, K. C., et al., Nature 417:941-944 (2002b)). The properties of the NgR mutants fell into one of three major categories (Table II and FIG. 5). A number of Ala substituted NgR polypeptides bound all of the ligands at wild type levels. […] In addition, a significant extent of the concave surface is dispensable for ligand binding.
Alanine substituted NgR mutants were tested for their binding to AP-Nogo66, AP-B4C, AP-B4C66, AP-Lingo-1, AP-OMgp and AP-MAG and they fall into three categories: (1) Mutants that lose binding to all NgR ligands. (2) Mutants that still maintain binding to all NgR ligands. […] The D259N mutant is an asparagine substitution to mimic a human polymorphism.

AP-Nogo66 = biological target: T1, AP-Nogo66 (Homo sapiens, UniProt Q9NQC3); test: Binding of AP-Nogo66 to COS-7 cells expressing NgR mutants; set-up: key: ++: WT level; +: weaker than wild type; trace binding; −: no binding; settings: AP-Ng66 5 nM; level of binding compared to wild type NgR
T1 construct: made in house; NgR mutants: COS-7
T1 sequence (Q9NQC3 1055-1120 limits assumed): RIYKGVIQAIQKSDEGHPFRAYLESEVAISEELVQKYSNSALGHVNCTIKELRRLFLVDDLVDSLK
Description: (§3) FIG. 4A. […] Binding of AP or AP fused NgR ligands to COS-7 cells expressing different NgR mutants as indicated. The concentrations of ligands applied were: AP, 30 nM; AP-Ng66, 5 nM; AP-Ng33, 10 nM; AP-B4C, 10 nM; AP-B4C66, 0.5 nM; AP-Lingo-1, 10 nM; AP-OMGP, 10 nM; AP-MAG, 30 nM. These concentrations are close to the binding Kd of these proteins to NgR so that any […] is reflected linearly in staining.
(§4) FIG. 4B. AP binding of NgR ligands to NgR mutants expressed as percentage of wild type NgR. AP after incubation with AP fused ligands, AP bound to COS-7 cells expressing NgR or NgR mutants were stained and measured.
as §1, §2
(§5) Binding of Alanine substituted NgR mutants to NgR ligands were compared to wild type NgR and the levels of binding were categorized as ++ (WT level), + (weaker than wild type), tr (trace binding), − (no binding), N/A (not determined). NgR mutant proteins were also subjected to SDS-PAGE and probed by anti-NgR antibodies. Mutants with expression level similar to WT NgR were labeled as “y”.

AP-B4C = biological target: T2, AP-B4C (Homo sapiens, UniProt Q9NQC3); test: Binding of AP-B4C to COS-7 cells expressing NgR mutants; set-up: key: ++: WT level; +: weaker than wild type; trace binding; −: no binding; settings: AP-B4C 10 nM; level of binding compared to wild type NgR
T2 construct: a.a; 950-1018 (AmNg B4C); made in house; host or cells: AP ligand: HEK293T conditioned medium; NgR mutants: COS-7
T2 sequence (Q9NQC3 950-1018): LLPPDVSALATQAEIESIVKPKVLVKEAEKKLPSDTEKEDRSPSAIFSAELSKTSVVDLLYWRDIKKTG
Description: as §3, §4, §1, §2, §5

AP-B4C66 = test: Binding of AP-B4C66 to COS-7 cells expressing NgR mutants; set-up: key: ++: WT level; +: weaker than wild type; trace binding; −: no binding; settings: AP-B4C66 0.5 nM; level of binding compared to wild type NgR
Description: as §3, §4, §1, §2, §5

AP-Lingo-1 = biological target: T3, AP-Lingo-1 (Homo sapiens, UniProt Q96FE5); test: Binding of AP-Lingo-1 to COS-7 cells expressing NgR mutants; set-up: key: ++: WT level; +: weaker than wild type; trace binding; −: no binding; settings: AP-Lingo-1 10 nM; level of binding compared to wild type NgR
T3 construct: made in house; NgR mutants: COS-7
T3 sequence (Q96FE5 40-538 limits assumed): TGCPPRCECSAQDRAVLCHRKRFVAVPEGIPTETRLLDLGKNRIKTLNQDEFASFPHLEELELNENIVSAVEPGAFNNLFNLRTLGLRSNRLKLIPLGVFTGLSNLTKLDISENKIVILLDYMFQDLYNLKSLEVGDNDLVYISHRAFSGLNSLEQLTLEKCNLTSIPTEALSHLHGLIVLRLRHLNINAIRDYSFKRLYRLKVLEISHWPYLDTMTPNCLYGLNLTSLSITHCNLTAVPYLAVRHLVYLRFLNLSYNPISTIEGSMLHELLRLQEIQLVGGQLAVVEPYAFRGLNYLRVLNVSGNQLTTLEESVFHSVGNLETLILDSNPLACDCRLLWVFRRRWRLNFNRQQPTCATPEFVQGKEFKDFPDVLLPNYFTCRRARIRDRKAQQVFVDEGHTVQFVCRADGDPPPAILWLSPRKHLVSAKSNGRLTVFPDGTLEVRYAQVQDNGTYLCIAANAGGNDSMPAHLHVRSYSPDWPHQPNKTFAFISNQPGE
Description: as §3, §4, §1, §2, §5

AP-OMgp = test: Binding of AP-OMgp to COS-7 cells expressing NgR mutants; set-up: key: ++: WT level; +: weaker than wild type; trace binding; −: no binding; settings: AP-OMGP 10 nM; level of binding compared to wild type NgR
Description: as §3, §4, §1, §2, §5

B2: 189, 191, 237: human NgR1 mutant, listed residues mutated to alanine (protein)
chain: CPGACVCYNEPKVTTSCPQQGLQAVPVGIPAASQRIFLHGNRISHVPAASFRACRNLTILWLHSNVLARIDAAAFTGLALLEQLDLSDNAQLRSVDPATFHGLGRLHTLHLDRCGLQELGPGLFRGLAALQYLYLQDNALQALPDDTFRDLGNLTHLFLHGNAIASVPERAFRGLHSLDRLLLHQNRVAHVHPHAFRDLGRLMTLYLFANALSALPTEALAPLRALQYLRLNDNPWVCDCRARPLWAWLQKFRGSSSEVPCSLPQRLAGRDLKRLAANDLQGCAVATGPYHPIWTGRATDEEPLGLPKCCQPDAADKASVLEPGRPASAGNALKGRVPPGDSPPGNGSGPRHINDSPFGTLPGSAEPPLTAVRPEGSEPPGFPTSGPRRRPGCSRKNRTRSHCRLGQAGSGGGGTGDSEGSGALPSLTCSLTPLGLALVLWTVLGPC
ligand binding category of NgR mutant (Table II) (NgR ligands): Binding to all ligands

B6: 171, 172, 175, 176: human NgR1 mutant, listed residues mutated to alanine (protein)
chain: B2 chain with D145A, D146A, R149A, D150A, A163R, A165S, A211N
ligand binding category of NgR mutant (Table II) (NgR ligands): Binding to all ligands

B9: 189, 191, 284: human NgR1 mutant, listed residues mutated to alanine (protein)
chain: B2 chain with A211N, E258A
ligand binding category of NgR mutant (Table II) (NgR ligands): Binding to all ligands

B10: 277, 279: human NgR1 mutant, listed residues mutated to alanine (protein)
chain: B2 chain with A163R, A165S, A211N, K251A, R253A
ligand binding category of NgR mutant (Table II) (NgR ligands): Binding to all ligands

B11: 296, 297, 300: human NgR1 mutant, listed residues mutated to alanine (protein)
chain: B2 chain with A163R, A165S, A211N, R270A, D271A, R274A
ligand binding category of NgR mutant (Table II) (NgR ligands): Binding to all ligands

B12: 196, 199: human NgR1 mutant, listed residues mutated to alanine (protein)
chain: B2 chain with A163R, A165S, R170A, R173A, A211N
ligand binding category of NgR mutant (Table II) (NgR ligands): Binding to all ligands

More lines, main results first:

ligand binding category of NgR mutant (Table II) (NgR ligands): Binding to all ligands
B1: 189, 191: human NgR1 mutant, listed residues mutated to alanine (protein)
chain: B2 chain with A211N

ligand binding category of NgR mutant (Table II) (NgR ligands): Binding to all ligands
B3: 202, 205: human NgR1 mutant, listed residues mutated to alanine (protein)
chain: B2 chain with A163R, A165S, H176A, D179A, A211N

ligand binding category of NgR mutant (Table II) (NgR ligands): Binding to all ligands
B4: 202, 205, 250: human NgR1 mutant, listed residues mutated to alanine (protein)
chain: B2 chain with A163R, A165S, H176A, D179A, A211N, R224A

ligand binding category of NgR mutant (Table II) (NgR ligands): Differential binding
Ng66 (AP-Nogo66): ++
B4C (AP-B4C): ++
Lingo-1 (AP-Lingo-1): tr
B5: 78, 81: human NgR1 mutant, listed residues mutated to alanine (protein)
chain: B2 chain with R52A, R55A, A163R, A165S, A211N
B4C-66 (AP-B4C66): ++
OMgp (AP-OMgp): ++

ligand binding category of NgR mutant (Table II) (NgR ligands): Binding to all ligands
B7: 292, 296, 297, 300: human NgR1 mutant, listed residues mutated to alanine (protein)
chain: B2 chain with A163R, A165S, A211N, R266A, R270A, D271A, R274A

ligand binding category of NgR mutant (Table II) (NgR ligands): Binding to all ligands
B8: 267, 269: human NgR1 mutant, listed residues mutated to alanine (protein)
chain: B2 chain with A163R, A165S, A211N, R241A, R243A

ligand binding category of NgR mutant (Table II) (NgR ligands): Binding to all ligands
B13: 171, 172, 175, 176, 196, 199: human NgR1 mutant, listed residues mutated to alanine (protein)
chain: B2 chain with D145A, D146A, R149A, D150A, A163R, A165S, R170A, R173A, A211N

ligand binding category of NgR mutant (Table II) (NgR ligands): Binding to all ligands
B14: 202, 205, 227: human NgR1 mutant, listed residues mutated to alanine (protein)
chain: B2 chain with A163R, A165S, H176A, D179A, R201A, A211N

Reference: patent US20090111753A1, “Nogo-A Polypeptide Fragments, Variant Nogo Receptor-1 Polypeptides, and Uses Thereof” (Yale University, priority 2004, published 2009)
